A word on the Kd: it is the free concentration of one partner at which half of the binding sites on the other are occupied at equilibrium, for simple one-to-one binding. By koff is commonly meant a measure of how fast the partners let go of each other. As usually defined, the kon is a measure of how fast the partners come together.

The values below come from patent EP4714976A1.

Numbering of substitutions follows the chain as printed.

B1: 3H9 scFv-Fc (Fc fusion)
chain: EIQLQQSGAELVKPGASVKMSCKASGYTFSFYNMHWVKRTPGQGLEWIGLIYPDNGDTSYNQKFKGKATLTADTSSSTAYMQLSSLTSEDSAVYYCARGGLDYWGQGTTLTVSSGGGGSGGGGSGGGGSDIVLTQSPASLSVSVGETVTITCRASENIYSNLAWYQQKQGKSPQLLVYAATNLADGVPSRFSGSGSGTQYSLKINSLQSEDFGSYYCQHFWGTPYTFGGGTKLELKESKYGPPCPPCPAPEAAGGPSVFLFPPKPKDTLMISRTPEVTCVVVDVSQEDPEVQFNWYVDGVEVHNAKTKPREEQFNSTYRVVSVLTVLHQDWLNGKEYKCKVSNKGLPSSIEKTISKAKGQPREPQVYTLPPSQEEMTKNQVSLTCLVKGFYPSDIAVEWESNGQPENNYKTTPPVLDSDGSFFLYSKLTVDKSRWQEGNVFSCSVMHEALHNHYTQKSLSLSLG
B2: 3E1 scFv-Fc (Fc fusion)
chain: QVQLQQPGAEVVKPGASVKMSCKASGYTFTDYYIHWVKQTPGQGLEWIGAIYPDNGDTSYNQKFKVKATLTADKSSSTAYMQLSSLTSEDSAVYYCARAFTYWGQGTLVTVSAGGGGSGGGGSGGGGSDILITQSPASLSASVGETVTITCGASENIYGALNWYQRKQGKSPQLLIYGATNLADGMSSRFSGSGSGRQYSLKISSLHPDDVATYYCQNVLSTPYTFGGGTKLEIKESKYGPPCPPCPAPEAAGGPSVFLFPPKPKDTLMISRTPEVTCVVVDVSQEDPEVQFNWYVDGVEVHNAKTKPREEQFNSTYRVVSVLTVLHQDWLNGKEYKCKVSNKGLPSSIEKTISKAKGQPREPQVYTLPPSQEEMTKNQVSLTCLVKGFYPSDIAVEWESNGQPENNYKTTPPVLDSDGSFFLYSKLTVDKSRWQEGNVFSCSVMHEALHNHYTQKSLSLSLG
B3: 1C10 scFv-Fc (Fc fusion)
chain: QVQLQQSGAELVKPGASVKMSCKASGYTFRYYNMHWVKRTPGQGLEWIGLIYPDNGDTSYNQKFKGKATLTADTSSSTAYMQLSSLTSEDSAVYYCARGGLDYWGQGTSLTVSSGGGGSGGGGSGGGGSDIVMTQSPASLSASVGETVTITCRASGNIHNYLAWYQQKQGKSPQLLVYNAKTLADGVPSRFSGSGSGTQYSLKINSLQPEDFGSYYCQHFWSTPYTFGGGTKLEMKESKYGPPCPPCPAPEAAGGPSVFLFPPKPKDTLMISRTPEVTCVVVDVSQEDPEVQFNWYVDGVEVHNAKTKPREEQFNSTYRVVSVLTVLHQDWLNGKEYKCKVSNKGLPSSIEKTISKAKGQPREPQVYTLPPSQEEMTKNQVSLTCLVKGFYPSDIAVEWESNGQPENNYKTTPPVLDSDGSFFLYSKLTVDKSRWQEGNVFSCSVMHEALHNHYTQKSLSLSLG
B4: 3B4 scFv-Fc (Fc fusion)
chain: EVQLQQSGADLVKPGASVKMSCKASGYTFSYYNMHWVRRTPGQGLEWIGLIYPDNGDTSYNQKFKGKATLTADTSSSTAYMQLSSLTSEDSAVYYCARGGLDYWGQGTTLTVSSGGGGSGGGGSGGGGSDIQMIQSPASMSASVGETVTITCGASENIYGALNWYQRKQGKSPQLLIYGATNLADGMSSRFSGSGSGRQYSLKISSLHPDDVATYYCQNVLSTPYTFGGGTKLEMKESKYGPPCPPCPAPEAAGGPSVFLFPPKPKDTLMISRTPEVTCVVVDVSQEDPEVQFNWYVDGVEVHNAKTKPREEQFNSTYRVVSVLTVLHQDWLNGKEYKCKVSNKGLPSSIEKTISKAKGQPREPQVYTLPPSQEEMTKNQVSLTCLVKGFYPSDIAVEWESNGQPENNYKTTPPVLDSDGSFFLYSKLTVDKSRWQEGNVFSCSVMHEALHNHYTQKSLSLSLG
B5: 3B7 scFv-Fc (Fc fusion)
chain: B4 chain with D10E, S30R, R38K, L101F, I134T, M140L, M235L
B6: 1D7 scFv-Fc (Fc fusion)
chain: QIQLQQSGAELVKPGASVKMSCKASGYTFRYYNMHWVKRTPGQGLEWIGLIYPDNGDTSYNQKFKGKATLTADTSSSTAYMQLSSLTSEDSAVYYCARGGLDYWGQGTSLTVSSGGGGSGGGGSGGGGSDIQMTQSPSSMSASLGDRITITCQATQDIVKNLNWYQQKPGKPPSFLIYYATELAEGVPSRFSGSGSGSDYSLTISNLESEDFADYYCLQFYEFPLTFGAGTKLELKESKYGPPCPPCPAPEAAGGPSVFLFPPKPKDTLMISRTPEVTCVVVDVSQEDPEVQFNWYVDGVEVHNAKTKPREEQFNSTYRVVSVLTVLHQDWLNGKEYKCKVSNKGLPSSIEKTISKAKGQPREPQVYTLPPSQEEMTKNQVSLTCLVKGFYPSDIAVEWESNGQPENNYKTTPPVLDSDGSFFLYSKLTVDKSRWQEGNVFSCSVMHEALHNHYTQKSLSLSLG
B7: 3E2 scFv-Fc (Fc fusion)
chain: EIQLQQSGAELVKPGASVKMSCKASGYTFSFYNMHWVKRTPGQGLEWIGLIYPDNGDTSYNQKFKGKATLTADTSSSTAYMQLSSLTSEDSAVYYCARGGLDYWGQGTSLTVSSGGGGSGGGGSGGGGSNIVMTQSQKFMSTSVGDRVSVTCKASQNVGTNVAWYQQKPGQSPKALIYSASYRYTGVPDRFTGSGSGTDFTFTISSVQAEDLAVYYCQQHYSTPYTFGGGTKLEIKESKYGPPCPPCPAPEAAGGPSVFLFPPKPKDTLMISRTPEVTCVVVDVSQEDPEVQFNWYVDGVEVHNAKTKPREEQFNSTYRVVSVLTVLHQDWLNGKEYKCKVSNKGLPSSIEKTISKAKGQPREPQVYTLPPSQEEMTKNQVSLTCLVKGFYPSDIAVEWESNGQPENNYKTTPPVLDSDGSFFLYSKLTVDKSRWQEGNVFSCSVMHEALHNHYTQKSLSLSLG
B8: 1B8 scFv-Fc (Fc fusion)
chain: QIQLQQSGAELVKPGASVKMSCKASGYTFASYNLHWVKQTPGQGLEWIGLIYPENGDTSYNQKFKGKATLTADTSSTTAYIQLSSLTSEDSAVYFCARGGFDYWGQGTSLTVSSGGGGSGGGGSGGGGSDIKMTQSPASLSASVGETVTITCGASENIYGALNWYQRKQGKSPQLLIYGATNLADGMSSRFSGSGSGRQYSLKISSLHPDDVATYYCQNVLSTPYTFGGGTKLEIKESKYGPPCPPCPAPEAAGGPSVFLFPPKPKDTLMISRTPEVTCVVVDVSQEDPEVQFNWYVDGVEVHNAKTKPREEQFNSTYRVVSVLTVLHQDWLNGKEYKCKVSNKGLPSSIEKTISKAKGQPREPQVYTLPPSQEEMTKNQVSLTCLVKGFYPSDIAVEWESNGQPENNYKTTPPVLDSDGSFFLYSKLTVDKSRWQEGNVFSCSVMHEALHNHYTQKSLSLSLG
B9: 3F11 scFv-Fc (Fc fusion)
chain: QVQLQQSGAELVKPGASVKMSCKASGYTFAPYNIHWVRQTPGQGLEWIGLIYPDNGDTSYNQKFKAKATLTADKSSSTAYMQLSSLTSEDSAVYYCARGGFDYWGQGTSLTVSSGGGGSGGGGSGGGGSDIVMTQSQKFMSTSVGDRVSVTCKASQNVGTNVAWYQQKPGQSPKALIYSASYRYSGVPDRFTGSGSGTDFTLTISNVQSEDLAEYFCQQHYSTPFTFGSGTKLEIKESKYGPPCPPCPAPEAAGGPSVFLFPPKPKDTLMISRTPEVTCVVVDVSQEDPEVQFNWYVDGVEVHNAKTKPREEQFNSTYRVVSVLTVLHQDWLNGKEYKCKVSNKGLPSSIEKTISKAKGQPREPQVYTLPPSQEEMTKNQVSLTCLVKGFYPSDIAVEWESNGQPENNYKTTPPVLDSDGSFFLYSKLTVDKSRWQEGNVFSCSVMHEALHNHYTQKSLSLSLG
B10: 2B2 scFv-Fc (Fc fusion)
chain: QLQLQQSGAELVKPGASVKMSCKASGYTFASYNLHWVKQTPGQGLEWIGLIYPENGDTSYNQKFKDKATLTADKSSTTAYIQLSSLASEDSAVYFCARGGFDYWGQGTTLTVSSGGGGSGGGGSGGGGSDIVMTQSQKFMSTSVGDRVSVTCKASQNVGTNVAWYQQKPGQSPKALIYSASYRYSGVPDRFTGSGSGTDYTLTISSVQAEDLALYYCQQHYSTPYTFGGGTKLELKESKYGPPCPPCPAPEAAGGPSVFLFPPKPKDTLMISRTPEVTCVVVDVSQEDPEVQFNWYVDGVEVHNAKTKPREEQFNSTYRVVSVLTVLHQDWLNGKEYKCKVSNKGLPSSIEKTISKAKGQPREPQVYTLPPSQEEMTKNQVSLTCLVKGFYPSDIAVEWESNGQPENNYKTTPPVLDSDGSFFLYSKLTVDKSRWQEGNVFSCSVMHEALHNHYTQKSLSLSLG

The first assay has as its target recombinant mouse FGFR2b (mouse) (UniProt P21803). Briefly: ELISA, antibody 1ug/mL.
As for B1, the OD (450 nm) value was found to be 2.99.

Take B2: the OD (450 nm) value is 2.92.

As for B3, the OD (450 nm) value was determined as 2.94.

As for B4, the OD (450 nm) value was 2.88.

For the molecule B5, the OD (450 nm) value is 2.97.

B6: the OD (450 nm) value came out at 3.04.

In the case of B7, the OD (450 nm) value is 2.96.

B8: the OD (450 nm) value is 2.01.

On to B9, for which the OD (450 nm) value is 2.92.

With B10, the OD (450 nm) value amounted to 3.09.

The target of the next assay is FGFR1 (acro) (UniProt P11362). Briefly: ELISA, antibody 10 µg/mL. (In general: In an ELISA, binding on a coated surface is turned into a signal by an enzyme label.)
Sequence of FGFR1 (acro) (P11362 22-376): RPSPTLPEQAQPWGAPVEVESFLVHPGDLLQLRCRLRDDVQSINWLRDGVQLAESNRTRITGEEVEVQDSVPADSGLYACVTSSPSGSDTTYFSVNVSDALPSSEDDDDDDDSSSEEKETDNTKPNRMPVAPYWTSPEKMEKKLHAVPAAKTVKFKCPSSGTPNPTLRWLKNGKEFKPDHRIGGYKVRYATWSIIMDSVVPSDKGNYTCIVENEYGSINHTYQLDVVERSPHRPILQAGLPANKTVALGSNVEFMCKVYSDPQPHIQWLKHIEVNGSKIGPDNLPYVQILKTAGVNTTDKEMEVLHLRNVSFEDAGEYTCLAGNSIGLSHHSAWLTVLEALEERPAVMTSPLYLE
In the case of B1, the OD (450 nm) value was determined as 0.646.

For the molecule B2, the OD (450 nm) value came to 0.08.

The molecule B3 registered an OD (450 nm) value of 0.626.

For the molecule B4, the OD (450 nm) value is 0.458.

As to B5, the OD (450 nm) value was found to be 0.083.

In turn, B6 showed an OD (450 nm) value of 0.074.

The molecule B7 gave an OD (450 nm) value of 0.122.

On to B8, for which the OD (450 nm) value was determined as 0.092.

For the molecule B9, the OD (450 nm) value stood at 0.1.

On to B10, for which the OD (450 nm) value amounted to 0.109.

The target of a further assay is recombinant mouse FGFR2b (mouse) (UniProt P21803). Put plainly: BLI, antibody on AHC2 sensor. On the technique in general: In BLI a coated tip is dipped into the sample, and binding shifts an interference pattern.
Sequence of recombinant mouse FGFR2b (mouse) (P21803 22-377): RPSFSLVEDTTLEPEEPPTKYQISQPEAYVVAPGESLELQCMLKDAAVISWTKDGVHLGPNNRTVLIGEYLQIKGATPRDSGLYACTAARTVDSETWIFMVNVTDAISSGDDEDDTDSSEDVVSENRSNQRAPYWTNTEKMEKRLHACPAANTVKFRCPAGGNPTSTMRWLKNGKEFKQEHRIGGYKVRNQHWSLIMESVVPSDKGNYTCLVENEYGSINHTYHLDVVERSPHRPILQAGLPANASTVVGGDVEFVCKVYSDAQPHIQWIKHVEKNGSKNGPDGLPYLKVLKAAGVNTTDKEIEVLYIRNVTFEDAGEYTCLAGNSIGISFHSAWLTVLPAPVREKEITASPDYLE
Turning to B1, the Kd amounted to 23.8 nM, the koff was found to be 0.00129 s⁻¹ and the kon was determined as 54200 M⁻¹ s⁻¹.

As to B2, the Kd was determined as 21.8 nM, the koff was determined as 0.00126 s⁻¹ and the kon came out at 57800 M⁻¹ s⁻¹.

Regarding B3, the dissociation constant (Kd) worked out at 75.6 nM, the koff came to 0.00216 s⁻¹ and the kon came to 28600 M⁻¹ s⁻¹.

Take B4: the Kd is 27.3 nM, the koff amounted to 0.0015 s⁻¹ and the kon turned out to be 54900 M⁻¹ s⁻¹.

B5: the Kd was found to be 33.9 nM, the off-rate (koff) amounted to 0.00172 s⁻¹ and the kon stood at 50700 M⁻¹ s⁻¹.

For the molecule B6, the Kd came out at 27.6 nM, the koff was 0.00117 s⁻¹ and the on-rate (kon) stood at 42500 M⁻¹ s⁻¹.

On to B7, for which the Kd worked out at 36.5 nM, the koff came to 0.00152 s⁻¹ and the kon came to 41800 M⁻¹ s⁻¹.

B8: the Kd came to 74.9 nM, the koff was 0.0048 s⁻¹ and the kon is 64000 M⁻¹ s⁻¹.

Regarding B9, the Kd amounted to 26 nM, the koff was determined as 0.0015 s⁻¹ and the kon stood at 57800 M⁻¹ s⁻¹.

On to B10, for which the Kd came to 53.5 nM, the dissociation rate constant (koff) came out at 0.00235 s⁻¹ and the kon was found to be 43900 M⁻¹ s⁻¹.
